Results taken from patent publication US20120107301A1.

Tests used:
[1] = target: recombinant human DC-SIGN (human) (UniProt Q9NNX6); assay: ELISA on recombinant DC-SIGN
[2] = target: L-SIGN expressed on K562 cells (human) (UniProt Q9H2X3); assay: flow cytometry on K562/L-SIGN cells
[3] = target: recombinant human L-SIGN (human) (UniProt Q9H2X3); assay: ELISA on recombinant L-SIGN

Sequence of UniProt Q9NNX6 (Q9NNX6 59-404 limits assumed): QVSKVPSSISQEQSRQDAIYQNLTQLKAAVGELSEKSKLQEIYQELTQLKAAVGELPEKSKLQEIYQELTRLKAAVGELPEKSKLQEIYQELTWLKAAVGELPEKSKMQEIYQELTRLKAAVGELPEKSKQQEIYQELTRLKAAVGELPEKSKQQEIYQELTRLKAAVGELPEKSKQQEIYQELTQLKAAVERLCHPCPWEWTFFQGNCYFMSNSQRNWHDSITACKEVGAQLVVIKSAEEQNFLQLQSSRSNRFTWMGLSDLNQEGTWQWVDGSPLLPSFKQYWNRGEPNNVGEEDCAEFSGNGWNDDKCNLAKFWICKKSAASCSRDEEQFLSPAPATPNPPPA

B1: additional IgG1k antibody clone A10 (antibody, from a related filing, V domains shown)
VH: EVQLQQSGPELEKPGASVKISCKASGYSFTGYNMNWVKQSNGKSLEWIGNIDPYYGDITYNQKFKGKATLTVDKSSSTAYMQLKSLTSEDSAVYYCARTATALYTMDYWGQGTSVTVSS
VL: EIVLTQSPAIMSASLGERVTMTCTASSSVSSSYLHWYQQKPGSSPKLWIYSTSNLASGVPARFSGSGSGTSYSLTISSMEAEDAATYYCHQYHRSPQTFGGGTKLEIK
[1]
  OD405: 0.1 OD405
[2]
  Geo. Mean Flourecence: 21.3
[3]
  OD405: 2.9 OD405
